Laboratory results reported in US20250235548A1, “ANTIBODY-DRUG CONJUGATES TARGETING NAPI2B AND METHODS OF USE” (Zymeworks BC Inc., priority 2022, published 2025).

Experiments:
[1] = Thermal stability by differential scanning calorimetry (Example 8); format: physicochemical; conditions: DSC, 0.4 mg/mL in PBS, 20° C. to 100° C. at 60° C./hr
Experimental: The thermal stability of the humanized antibody variants was assessed by differential scanning calorimetry (DSC) as described below.
400 μL of purified samples primarily at concentrations of 0.4 mg/mL in PBS were used for DSC analysis with a VP-Capillary DSC (Malvern Panalytical Inc., Westborough, MA). At the start of each DSC run, 5 buffer blank injections were performed to stabilize the baseline, and a buffer injection was placed before each sample injection for referencing. Each sample was scanned from 20° C. to 100° C. at a 60° C./hr rate, with low feedback, 8 sec filter, 3 min pre-scan thermostat, and 70 psi nitrogen pressure. The resulting thermograms were referenced and analyzed using Origin 7 software (OriginLab Corporation, Northampton, MA) to determine melting temperature (Tm) as an indicator of thermal stability.

[2] = target: T1, NaPi2b expressed on IGROV-1 cells (Homo sapiens, UniProt O95436); assay: Cellular binding of bivalent antibodies by flow cytometry (Example 16); conditions: NB = no cellular binding; for Bmax, IGROV-1: AF647 GeoMean, 24 hours at 4° C.
T1 construct: endogenous NaPi2b-expressing cancer cell lines IGROV-1 (ovarian carcinoma); endogenous in cells; host or cells: IGROV-1
T1 sequence (O95436 1-690): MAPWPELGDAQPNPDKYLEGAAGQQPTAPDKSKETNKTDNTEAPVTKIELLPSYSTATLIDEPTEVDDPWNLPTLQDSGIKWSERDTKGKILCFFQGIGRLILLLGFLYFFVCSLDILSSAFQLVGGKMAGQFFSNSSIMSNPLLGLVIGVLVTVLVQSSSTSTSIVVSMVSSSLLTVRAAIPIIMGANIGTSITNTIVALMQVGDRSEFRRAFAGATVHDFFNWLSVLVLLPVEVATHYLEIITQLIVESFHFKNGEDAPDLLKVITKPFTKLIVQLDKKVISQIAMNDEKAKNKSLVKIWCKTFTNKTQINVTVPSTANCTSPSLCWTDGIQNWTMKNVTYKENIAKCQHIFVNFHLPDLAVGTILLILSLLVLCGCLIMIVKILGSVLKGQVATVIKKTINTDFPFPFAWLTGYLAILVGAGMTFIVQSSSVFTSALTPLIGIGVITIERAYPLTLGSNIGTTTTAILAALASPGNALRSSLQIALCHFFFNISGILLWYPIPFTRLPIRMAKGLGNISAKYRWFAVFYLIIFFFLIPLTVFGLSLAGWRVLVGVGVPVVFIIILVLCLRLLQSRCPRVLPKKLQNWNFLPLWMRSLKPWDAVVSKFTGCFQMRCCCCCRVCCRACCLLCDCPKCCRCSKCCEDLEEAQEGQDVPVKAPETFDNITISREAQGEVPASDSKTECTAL
Experimental: IGROV-1 cells express endogenous NaPi2b at a high level.
Briefly, cells were seeded at 50,000 cells/well in conical-bottom 96-well plates and treated with test antibody for 24 hours at 4° C. to prevent internalization. […] Following incubation and washing, fluorescence was detected by flow cytometry on a BD LSRFortessa™ Cell Analyzer (BD Biosciences, Franklin Lake, NJ) with 1,000 minimum events collected per well.

B1: v29453: "Representative humanized antibody variants ... of the mouse antibody" that specifically binds hNaPi2b (antibody, V domains shown)
VH: QVQLVQSGAEVKKPGASVKMSCKASGFTFTSYNVHWVRQAPGQGLEWIAAISPGNGDLSYAQKFQGRATLTVDRSTSTAYMELSSLRSEDTAVYYCARGRTGMGAVDYWGQGTLVTVSS
VL: DVQMTQSPSSLSASVGDRVTITCRASQDVYSYLNWYQQKPGKAVKLLIYYTSRLQSGVPSRFSGSGSGTDYTLTISSLQPEDFATYYCQQYNIFPWTFGQGTKLEIK
modifications: v29449, v29453, v29457 VH (H4); v29453, v29454, v29455, v29456 VL (L2)
**Q.** What does the source list for B1?
**A.** Fab Tm (° C.) [1]: 78.9 °C; Bmax, IGROV-1 [2]: 44,480; Curve Hill Slope (h), IGROV-1 [2]: 1.2

B2: v29451: "Representative humanized antibody variants ... of the mouse antibody" that specifically binds hNaPi2b (antibody, V domains shown)
VH: QVQLVQSGAEVKKPGASVKVSCKASGFTFTSYNVHWVRQAPGQGLEWIAAISPGNGDLSYAQKFQGRVTMTVDTSTSTVYMELSSLRSEDTAVYYCARGRTGMGAVDYWGQGTLVTVSS
VL: DVQMTQSPSSLSASVGDRVTITCRASQDVYSYLNWYQQKPGKAVKLLIYYTSRLQSGVPSRFSGSGSGTDYTLTISSLQPEDIATYYCQQYNIFPWTFGQGTKLEIK
modifications: v29451, v29455, 29459 VH (H2); v29449, v29450, v29451, v29452 VL (L3)
**Q.** For B2, which “Fab Tm (° C.)” value [1] is on record?
**A.** The value was 83.0 °C.

**Q.** And the “Bmax, IGROV-1” value [2]?
**A.** Its value is 46,170.

**Q.** And the “Curve Hill Slope (h), IGROV-1” value [2]?
**A.** The value was 1.1.

B3: v29450: "Representative humanized antibody variants ... of the mouse antibody" that specifically binds hNaPi2b (antibody, V domains shown)
VH: QVQLVQSGAEVKKPGASVKMSCKASGFTFTSYNVHWVRQAPGQGLEWIAAISPGNGDLSYAQKFQGRATLTVDTSTSTAYMELSSLRSEDTAVYYCARGRTGMGAVDYWGQGTLVTVSS
VL: DVQMTQSPSSLSASVGDRVTITCRASQDVYSYLNWYQQKPGKAVKLLIYYTSRLQSGVPSRFSGSGSGTDYTLTISSLQPEDIATYYCQQYNIFPWTFGQGTKLEIK
modifications: v29450, v29454, v29458 VH (H3); v29449, v29450, v29451, v29452 VL (L3)
**Q.** With B3 as the molecule, how does the “Fab Tm (° C.)” value [1] read?
**A.** The value was 81.0 °C.

**Q.** And the “Bmax, IGROV-1” value [2]?
**A.** Its value is 43,809.

**Q.** What about the “Curve Hill Slope (h), IGROV-1” value [2] of the same molecule?
**A.** The value was 1.2.

B4: v29455: "Representative humanized antibody variants ... of the mouse antibody" that specifically binds hNaPi2b (antibody, V domains shown)
VH: QVQLVQSGAEVKKPGASVKVSCKASGFTFTSYNVHWVRQAPGQGLEWIAAISPGNGDLSYAQKFQGRVTMTVDTSTSTVYMELSSLRSEDTAVYYCARGRTGMGAVDYWGQGTLVTVSS
VL: DVQMTQSPSSLSASVGDRVTITCRASQDVYSYLNWYQQKPGKAVKLLIYYTSRLQSGVPSRFSGSGSGTDYTLTISSLQPEDFATYYCQQYNIFPWTFGQGTKLEIK
modifications: v29451, v29455, 29459 VH (H2); v29453, v29454, v29455, v29456 VL (L2)
**Q.** For B4, which “Fab Tm (° C.)” value [1] is on record?
**A.** The value was 81.5 °C.

**Q.** What about the “Bmax, IGROV-1” value [2] of the same molecule?
**A.** The value was 41,917.

**Q.** What about the “Curve Hill Slope (h), IGROV-1” value [2] of the same molecule?
**A.** The value was 1.1.

B5: v29458: "Representative humanized antibody variants ... of the mouse antibody" that specifically binds hNaPi2b (antibody, V domains shown)
VH: QVQLVQSGAEVKKPGASVKMSCKASGFTFTSYNVHWVRQAPGQGLEWIAAISPGNGDLSYAQKFQGRATLTVDTSTSTAYMELSSLRSEDTAVYYCARGRTGMGAVDYWGQGTLVTVSS
VL: DIQMTQSPSSLSASVGDRVTITCRASQDVYSYLNWYQQKPGKAPKLLIYYTSRLQSGVPSRFSGSGSGTDFTLTISSLQPEDFATYYCQQYNIFPWTFGQGTKLEIK
modifications: v29450, v29454, v29458 VH (H3); v29457, v29458, v29459, v29460 VL (L1)
**Q.** For B5, which “Fab Tm (° C.)” value [1] is on record?
**A.** Its value is 81.6 °C.

**Q.** What about the “Bmax, IGROV-1” value [2] of the same molecule?
**A.** Its value is 40,793.

**Q.** What about the “Curve Hill Slope (h), IGROV-1” value [2] of the same molecule?
**A.** Its value is 1.1.

B6: v29449: "Representative humanized antibody variants ... of the mouse antibody" that specifically binds hNaPi2b (antibody, V domains shown)
VH: QVQLVQSGAEVKKPGASVKMSCKASGFTFTSYNVHWVRQAPGQGLEWIAAISPGNGDLSYAQKFQGRATLTVDRSTSTAYMELSSLRSEDTAVYYCARGRTGMGAVDYWGQGTLVTVSS
VL: DVQMTQSPSSLSASVGDRVTITCRASQDVYSYLNWYQQKPGKAVKLLIYYTSRLQSGVPSRFSGSGSGTDYTLTISSLQPEDIATYYCQQYNIFPWTFGQGTKLEIK
modifications: v29449, v29453, v29457 VH (H4); v29449, v29450, v29451, v29452 VL (L3)
**Q.** With B6 as the molecule, how does the “Fab Tm (° C.)” value [1] read?
**A.** Its value is 80.0 °C.

**Q.** What about the “Bmax, IGROV-1” value [2] of the same molecule?
**A.** Its value is 44,460.

**Q.** What about the “Curve Hill Slope (h), IGROV-1” value [2] of the same molecule?
**A.** The value was 1.3.

B7: v29454: "Representative humanized antibody variants ... of the mouse antibody" that specifically binds hNaPi2b (antibody, V domains shown)
VH: QVQLVQSGAEVKKPGASVKMSCKASGFTFTSYNVHWVRQAPGQGLEWIAAISPGNGDLSYAQKFQGRATLTVDTSTSTAYMELSSLRSEDTAVYYCARGRTGMGAVDYWGQGTLVTVSS
VL: DVQMTQSPSSLSASVGDRVTITCRASQDVYSYLNWYQQKPGKAVKLLIYYTSRLQSGVPSRFSGSGSGTDYTLTISSLQPEDFATYYCQQYNIFPWTFGQGTKLEIK
modifications: v29450, v29454, v29458 VH (H3); v29453, v29454, v29455, v29456 VL (L2)
**Q.** Which “Fab Tm (° C.)” value [1] does the source give for B7 here?
**A.** The value was 79.7 °C.

**Q.** What about the “Bmax, IGROV-1” value [2] of the same molecule?
**A.** The value was 42,278.

**Q.** And the “Curve Hill Slope (h), IGROV-1” value [2]?
**A.** The value was 1.0.

B8: v29457: "Representative humanized antibody variants ... of the mouse antibody" that specifically binds hNaPi2b (antibody, V domains shown)
VH: QVQLVQSGAEVKKPGASVKMSCKASGFTFTSYNVHWVRQAPGQGLEWIAAISPGNGDLSYAQKFQGRATLTVDRSTSTAYMELSSLRSEDTAVYYCARGRTGMGAVDYWGQGTLVTVSS
VL: DIQMTQSPSSLSASVGDRVTITCRASQDVYSYLNWYQQKPGKAPKLLIYYTSRLQSGVPSRFSGSGSGTDFTLTISSLQPEDFATYYCQQYNIFPWTFGQGTKLEIK
modifications: v29449, v29453, v29457 VH (H4); v29457, v29458, v29459, v29460 VL (L1)
**Q.** What does the source list for B8?
**A.** Fab Tm (° C.) [1]: 80.5 °C; Bmax, IGROV-1 [2]: 44,539; Curve Hill Slope (h), IGROV-1 [2]: 1.0

B9: v29460: "Representative humanized antibody variants ... of the mouse antibody" that specifically binds hNaPi2b (antibody, V domains shown)
VH: QVQLVQSGAEVKKPGASVKVSCKASGFTFTSYNVHWVRQAPGQGLEWMGAISPGNGDLSYAQKFQGRVTMTRDTSTSTVYMELSSLRSEDTAVYYCARGRTGMGAVDYWGQGTLVTVSS
VL: DIQMTQSPSSLSASVGDRVTITCRASQDVYSYLNWYQQKPGKAPKLLIYYTSRLQSGVPSRFSGSGSGTDFTLTISSLQPEDFATYYCQQYNIFPWTFGQGTKLEIK
modifications: v29452, v29456, v29460 VH (H1); v29457, v29458, v29459, v29460 VL (L1)
**Q.** Which “Fab Tm (° C.)” value [1] does the source give for B9 here?
**A.** Its value is 80.3 °C.

**Q.** And the “Bmax, IGROV-1” value [2]?
**A.** The value was 40,071.

**Q.** And the “Curve Hill Slope (h), IGROV-1” value [2]?
**A.** The value was 1.2.
